Laboratory results reported in PMC10743851.

Target: actin (of the actin-chitin affinity column)
Assay: sequential dual-affinity chromatography; DBP of donor eluted from the 25-OH-D3/Sepharose column, loaded on the Actin/chitin column

percent bound: < 10%
Substance: vitamin D3-binding protein (DBP) of donor (from UniProt P02774 17-474) (natural protein)
